The values below come from patent US20220228157A1, “GENE EDITING IN DIVERSE BACTERIA” (priority 2019, published 2022).

The test system of one series is L. rhamnosus. Type of series: cell-based. Particulars: L. rhamnosus. The procedure: Finally, the model for RecT was used to establish recombineering in L. rhamnosus, a well-studied probiotic used to treat a variety of illnesses including diarrhea and bacterial vaginosis. Although the L. rhamnosus SSB and L. lactis SSB only have 47% identity, they share identical SSB C-terminal tail 7 amino acids. It was determined whether LrpRecT (which functions in L. lactis) is portable to L. rhamnosus, while the other RecT proteins would not be functional.

Series [1] concerns 90 bp oligos pre-coated with SSB. The experiment in a line: Oligonucleotide annealing and quenching in vitro. It counts as biochemical. The source says: It was first whether two 90 bp oligos could anneal if they were pre-coated with SSB. SSBs was purified from E. coli (gram-negative), where most recombineering work has been performed, and L. lactis (gram-positive), a lactic acid bacterium phylogenetically distantly related to E. coli. […] It was next tested capacity of a phage RecT protein to overcome this SSB-mediated inhibition of annealing. Thus, Redβ, which is not broadly portable, but mediates efficient oligonucleotide annealing in E. coli, was purified. […] These preliminary results gave us an indication that while bacterial SSBs inhibit oligonucleotide annealing in vitro, RecTs overcome the inhibitory effect in an SSB-specific manner.
Fluorescent (tolC-r.null.mut-3′FAM) and quenching (tolC-f.null.mut-5′IBFQ) oligos were ordered from Integrated DNA Technologies. Unless otherwise indicated, 50 nM of each oligo was incubated in 25 mM TRIS-HCl pH 7.4 with 1.0 μM Ec_SSB or Ll_SSB at 30° C. for 30 minutes. 100 μl of each oligo mixture were then combined into a 96-well clear-bottom black assay plate (Costar), incubated a further 60 minutes at 30° C., and annealing was tracked on a Synergy H4 microplate reader (BioTek) with fluorescence excitation set to 495 nm and emission set to 520 nm. After 60 minutes, 20 μl of a solution with or without 25 μM Redβ and containing 100 mM MgCl2 was added to achieve a final reaction concentration of 2.5 μM Redβ and 10 mM MgCl2. The annealing was then tracked over 10 hours in a the Synergy H4 microplate reader with the setting indicated above.

In a further series the test system is E. coli MG1655. The series is described as follows: Single-cycle multiplex genome editing with oligo pools, read out by NGS. It counts as cell-based, Escherichia coli. As to conditions: for Average editing efficiency at all loci: 19 simultaneous edits. Here is the method:
CspRecT was then tested at a variety of more complex genome editing tasks. For longer strings of consecutive mismatches, which are lower efficiency events, CspRecT was again about twice as efficient as Redβ. […] To further investigate the performance of CspRecT at complex, highly multiplexed genome editing tasks, a set of 20 oligos spaced evenly around the E. coli genome was designed, each of which incorporates a single-nucleotide synonymous mutation at a non-essential gene. Next, while expressing Redβ, PapRecT, and CspRecT separately from the corresponding pORTMAGE plasmid, a single cycle of genome editing was performed with equimolar pools of 1, 5, 10, 15, and 20 oligos and assayed editing efficiency at each locus by PCR amplification coupled to targeted next generation sequencing (NGS). […] For instance, when making 19 simultaneous edits (one oligo from the pool of 20 could not be read out due to inconsistencies in allelic amplification), CspRecT averaged 5.1% editing efficiency at all loci, whereas Redβ and PapRecT averaged only 0.40% and 0.43%. Importantly, despite keeping total oligo concentration fixed across all pools, aggregate editing efficiency increased as more oligos were present in each pool. For instance, when using CspRecT with a 19-oligo pool, aggregate editing efficiency was nearly 100%, implying that across the total recovered population of E. coli there averaged one edit per cell.
To measure single locus editing, a recombineering cycle was run with an oligo that confers a single base pair non-coding mismatch in a non-essential gene. The allele was then amplified by PCR and editing efficiency was measured by NGS as described above. To test multiplex editing, the concentration of oligo was held fixed (10 μM in the final electroporation mixture), but the total number of oligos in the mixture was varied. Pools of oligos to test editing at 5, 10, 15, or 20 alleles simultaneously were designed so as to space the edits relatively evenly around the genome. The 5-oligo pool contained oligo #'s 3,7,11,15,17, the 10-oligo pool added oligo #'s 1,5,9,13,19, the 15-oligo pool added oligo #'s 4,8,12,16,18, and the final 20-oligo pool contained silent mismatch MAGE oligos.

Another series relates to E. coli. The series is described as follows: lacZ recombineering assay (blue/white screening). It counts as cell-based, Escherichia coli. As to conditions: for Editing efficiency, 18-bp consecutive mismatches into lacZ / Editing efficiency, 30-bp consecutive mismatches into lacZ: wild type E. coli MG1655. The procedure:
Top individual SSAPs (SEQ ID NO: 157 and SEQ ID NO: 24, using Redβ as a control) were expressed in E. coli from a lambda pL promoter. The mutational profile of edits are shown in FIG. 5, including the efficiency of introducing 18-nucleotide (NT) and 30-NT mismatches. Efficiency was measured by disruption of LacZ, plating on X-gal, and counting the number of blue vs. white colonies. In contrast to FIG. 1A, a high over-performance by the SSAP (SEQ ID NO: 157) alone was observed when it was driven off of a more efficient promoter.
To maximize the phylogenetic reach and applicability of these new tools, CspRecT was characterized, alongside Redβ and PapRecT, subcloned into the pORTMAGE plasmid system (FIGS. 10A-10B, Addgene accession: #120418). This plasmid contains a broad-host RSF1010 origin of replication, establishes tight regulation of protein expression with an m-toluic-acid inducible expression system, and disables MMR by transient overexpression of a dominant-negative mutant of E. coli MutL (MutL E32K) (Nyerges et al., Proc. Natl. Acad. Sci. U.S.A. 113, 2502-2507 (2016)), which makes it possible to establish high-efficiency editing without modification of the host genome. […] This pORTMAGE plasmid expressing CspRecT was referred to as pORTMAGE-Ec1 (Addgene).
Oligos were designed to introduce I) premature STOP codons into lacZ for E. coli, K. pneumoniae, and C. freundii, or II) RpsL K43→R; GyrA T83→I; ParC S83→L; RpoB D521→V, or a premature STOP codon into nfxB for P. aeruginosa. Oligo-mediated recombineering was performed as described above on all bacterial strains. After recovery overnight, cells were plated at empirically-determined dilutions to a density of 200-500 colonies per plate. In the case of LacZ screening, plating was assayed on MacConkey agar plates or on X-Gal/IPTG LB^L agar plates in the case of K. pneumoniae. In the case of selective antibiotic screening, cultures were plated onto both selective and non-selective plates. Selective antibiotic concentrations used were the same as those described for the selective testing above, except that in P. aeruginosa 100 μg/ml STR and 1.5 μg/ml CIP were used unless otherwise noted. Variants that were resistant to multiple antibiotics were selected on LB^L agar plates that contained the combination of all corresponding antibiotics. Non-selective plates were antibiotic-free LB^L agar plates. In all cases, allelic-replacement frequencies were calculated by dividing the number of recombinant CFUs by the number of total CFUs. Plasmid maintenance was ensured by supplementing all media and agar plates with either KAN (50 μg/ml) or GEN (20 μg/ml). Minimum Inhibitory Concentration (MIC) Measurement in P. aeruginosa

[2] abbreviates: wild-type E. coli MG1655, pORTMAGE plasmid.

B1: PapRecT: SSAP from Pseudomonas aeruginosa, SEQ ID NO: 24, UniParc ID: UPI0001E9E6CB (protein, listed as Pseudomonas aeruginosa)
chain: MGTALTPLLTKFATRYEMGTTPEEVANTLKQTCFKGQVNDSQMVALLIVADQYKLNPFTKELYAFPDKNNGIVPVVGVDGWARIINENPQFDGMEFSMDQQGTECTCKIYRKDRSHAISATEYMAECKRNTQPWQSHPRRMLRHKAMIQCARLAFGFAGIYDQDEAERIVERDVTPAEQYEDVSEAICLIKDSPTMEDLQAAFSNAWKAYKTKGARDQLTAAKDQRKKELLDAPIDVEFEETGDDRAA
As to B1, in the series with L. rhamnosus, the “Oligonucleotide incorporation” value is recorded as “negligible activity”. The “Annealing kinetics in vitro” value in series [1] is on record as “improved annealing kinetics in vitro”. In addition, the “Average editing efficiency at all loci” value in the series on E. coli MG1655 came out at 0.43%.

B2: Redβ: Redβ SSAP from Enterobacteria phage λ, SEQ ID NO: 474 (protein)
chain: MSTALATLAGKLAERVGMDSVDPQELITTLRQTAFKCDASDAQFIALLIVANQYGLNPWTKEIYAFPDKQNGIVPVVGVDGWSRIINENQQFDGMDFEQDNESCTCRIYRKDRNHPICVTEWMDECRREPFKTREGREITGPWQSHPKRMLRHKAMIQCARLAFGFAGIYDKDEAERIVENTAYTAERQPERDITPVNDETMQEINTLLIALDKTWDDDLLPLCSQIFRRDIRASSELTQAEAVKALGFLKQKATEQKVAA
modifications: Bacteriophage Lambda
Consider B2, for which, in the series with L. rhamnosus, the “Oligonucleotide incorporation” value was “negligible activity”. The “Ability to overcome SSB-mediated inhibition of annealing” value in series [1] is reported as “overcame the inhibitory effect of EcSSB but not L1SSB”. In the series with E. coli MG1655, the “Average editing efficiency at all loci” value is listed as 0.40%. Further, in the series with E. coli, the “Editing efficiency, 18-bp consecutive mismatches into lacZ” value was determined as 3% and the “Editing efficiency, 30-bp consecutive mismatches into lacZ” value was 1%.

B3: CspRecT: RecT SSAP (UniParc ID: UPI0001837D7F) from a phage of Collinsella stercoris (protein)
chain: MNQIVKFTDDSGLAVQVTPDDVRRYICENATEKEVGLFLQLCQTQRLNPFVKDAYLVKYGGAPASMITSYQVFNRRACRDANYDGIKSGVVVLRDGDVVHKRGAACYKKAGEELIGGWAEVRFKDGRETAYAEVALDDYSTGKSNWAKMPGVMIEKCAKAAAWRLAFPDTFQGMYAAEEMDQAQQPEQVRAQAEQPVDLQPIRELFKPYCEHFGITPAEGMTAVCGAVGAEGMHSMTEQQARRARAWMEEEMAAPAVEAEYEVVDEGEVF
modifications: Collinsella stercoris DSM 13279
B3 returned an Aggregate editing efficiency in the series on E. coli MG1655 (19-oligo pool) of approximately 100%. In the series on E. coli MG1655, the “Average editing efficiency at all loci” value is listed as 5.1%. The “Editing efficiency relative to other SSAPs” value in the series on E. coli (E. coli, lambda pL promoter) is given as “about double the efficiency of Redβ or SSAP SEQ ID NO: 24”. In addition, in the series with E. coli, the “Editing efficiency, 18-bp consecutive mismatches into lacZ” value stood at 6% and the “Editing efficiency, 30-bp consecutive mismatches into lacZ” value was 3%. Also, in the series with E. coli (setting [2]), the “Editing efficiency, average over single-base mismatches” value is 43% and the “Editing efficiency, various single-base mismatches” value is given as 35-51%.
